Test results as given in publication PMC6454399, “A Parsimonious Mechanism of Sugar Dehydration by Human GDP-Mannose-4,6-dehydratase” (ACS Catalysis, 2019).

T1: human GDP-mannose 4,6-dehydratase (hGMD) (Homo sapiens, UniProt O60547, E157Q)
T1 construct: gene GMDS; purified enzyme, wild type and point variants; homodimer in crystals (two to four homodimers per asymmetric unit); construct borders, tags and host only in supplement
T1 sequence (O60547 2-372 E157Q limits assumed): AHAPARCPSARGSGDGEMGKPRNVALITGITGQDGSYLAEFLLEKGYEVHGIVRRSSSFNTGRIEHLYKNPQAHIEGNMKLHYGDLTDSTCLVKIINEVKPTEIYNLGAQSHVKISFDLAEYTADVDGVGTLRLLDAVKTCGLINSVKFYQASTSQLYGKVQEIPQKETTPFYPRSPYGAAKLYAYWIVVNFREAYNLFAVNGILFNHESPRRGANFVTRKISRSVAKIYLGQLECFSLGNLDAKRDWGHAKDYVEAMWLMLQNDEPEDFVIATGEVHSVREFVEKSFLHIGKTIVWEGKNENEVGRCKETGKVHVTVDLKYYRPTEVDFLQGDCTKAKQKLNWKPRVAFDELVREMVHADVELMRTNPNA

T2: human GDP-mannose 4,6-dehydratase (hGMD) (Homo sapiens, UniProt O60547)
T2 construct: gene GMDS; purified enzyme, wild type and point variants; homodimer in crystals (two to four homodimers per asymmetric unit); construct borders, tags and host only in supplement
T2 sequence (O60547 2-372 limits assumed): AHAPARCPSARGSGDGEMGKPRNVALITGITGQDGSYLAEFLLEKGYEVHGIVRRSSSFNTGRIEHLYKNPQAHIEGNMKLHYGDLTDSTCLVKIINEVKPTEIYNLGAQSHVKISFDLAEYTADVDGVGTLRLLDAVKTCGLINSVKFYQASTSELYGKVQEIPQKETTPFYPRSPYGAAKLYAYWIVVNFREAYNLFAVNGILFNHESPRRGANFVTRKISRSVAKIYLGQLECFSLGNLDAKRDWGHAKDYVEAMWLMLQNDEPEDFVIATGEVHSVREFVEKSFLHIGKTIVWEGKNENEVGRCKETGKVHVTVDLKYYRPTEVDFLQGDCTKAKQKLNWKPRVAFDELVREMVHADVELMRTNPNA


Key:
[1] = target: T1, human GDP-mannose 4,6-dehydratase (hGMD); assay: X-ray crystal structure, […] Å; settings: GDP-mannose also bound; NADP+ binding site
[2] = target: T2, human GDP-mannose 4,6-dehydratase (hGMD); assay: isothermal titration calorimetry; type: binding
[3] = substrate: Nc1nc2c(ncn2[C@@H]2O[C@H](COP(=O)(O)OP(=O)(O)O[C@H]3O[C@H](CO)[C@@H](O)[C@H](O)[C@@H]3O)[C@@H](O)[C@H]2O)c(=O)[nH]1; assay: initial rate measurements; type: biochemical, Homo sapiens; settings: 37 °C
Source text: initial rate measurements on human GDP-mannose 4,6-dehydratase (hGMD)

| Kd [2] [nM] | Molecule | X-ray crystal structure, 1.47 Å [1] | Km [3] [µM] | kcat [3] [s⁻¹] |
| --- | --- | --- | --- | --- |
| – | NC(=O)c1ccc[n+]([C@@H]2O[C@H](COP(=O)(O)OP(=O)(O)OC[C@H]3O[C@@H](n4cnc5c(N)ncnc54)[C@H](OP(=O)(O)O)[C@@H]3O)[C@@H](O)[C@H]2O)c1 [NADP^+] | each monomer has bound GDP-mannose (purple) and NADP^+ (yellow) | – | – |
| 1600 | Nc1nc2c(ncn2[C@@H]2O[C@H](COP(=O)(O)OP(=O)(O)O[C@H]3O[C@H](CO)[C@@H](F)[C@H](O)[C@@H]3O)[C@@H](O)[C@H]2O)c(=O)[nH]1 [GDP-4″-deoxy-4″-fluoro-mannose] | – | – | – |
| – | human GDP-mannose 4,6-dehydratase (hGMD) (Homo sapiens) (protein, purified enzyme, wild type and point variants; homodimer in crystals (two to four homodimers per asymmetric unit); construct borders, tags and host only in supplement) AHAPARCPSARGSGDGEMGKPRNVALITGITGQDGSYLAEFLLEKGYEVHGIVRRSSSFNTGRIEHLYKNPQAHIEGNMKLHYGDLTDSTCLVKIINEVKPTEIYNLGAQSHVKISFDLAEYTADVDGVGTLRLLDAVKTCGLINSVKFYQASTSELYGKVQEIPQKETTPFYPRSPYGAAKLYAYWIVVNFREAYNLFAVNGILFNHESPRRGANFVTRKISRSVAKIYLGQLECFSLGNLDAKRDWGHAKDYVEAMWLMLQNDEPEDFVIATGEVHSVREFVEKSFLHIGKTIVWEGKNENEVGRCKETGKVHVTVDLKYYRPTEVDFLQGDCTKAKQKLNWKPRVAFDELVREMVHADVELMRTNPNA | – | 8 ± 1 | 0.42 ± 0.08 |
| – | human GDP-mannose 4,6-dehydratase (hGMD) (Homo sapiens; S156A) (protein, purified enzyme, wild type and point variants; homodimer in crystals (two to four homodimers per asymmetric unit); construct borders, tags and host only in supplement) AHAPARCPSARGSGDGEMGKPRNVALITGITGQDGSYLAEFLLEKGYEVHGIVRRSSSFNTGRIEHLYKNPQAHIEGNMKLHYGDLTDSTCLVKIINEVKPTEIYNLGAQSHVKISFDLAEYTADVDGVGTLRLLDAVKTCGLINSVKFYQASTAELYGKVQEIPQKETTPFYPRSPYGAAKLYAYWIVVNFREAYNLFAVNGILFNHESPRRGANFVTRKISRSVAKIYLGQLECFSLGNLDAKRDWGHAKDYVEAMWLMLQNDEPEDFVIATGEVHSVREFVEKSFLHIGKTIVWEGKNENEVGRCKETGKVHVTVDLKYYRPTEVDFLQGDCTKAKQKLNWKPRVAFDELVREMVHADVELMRTNPNA | – | 127 ± 5 | 0.05 ± 0.01 |
